T1: TNFR2 on transiently transfected cells (UniProt P20333 23-461, limits assumed)
T1 construct: whole, on cells
T1 sequence (looked up): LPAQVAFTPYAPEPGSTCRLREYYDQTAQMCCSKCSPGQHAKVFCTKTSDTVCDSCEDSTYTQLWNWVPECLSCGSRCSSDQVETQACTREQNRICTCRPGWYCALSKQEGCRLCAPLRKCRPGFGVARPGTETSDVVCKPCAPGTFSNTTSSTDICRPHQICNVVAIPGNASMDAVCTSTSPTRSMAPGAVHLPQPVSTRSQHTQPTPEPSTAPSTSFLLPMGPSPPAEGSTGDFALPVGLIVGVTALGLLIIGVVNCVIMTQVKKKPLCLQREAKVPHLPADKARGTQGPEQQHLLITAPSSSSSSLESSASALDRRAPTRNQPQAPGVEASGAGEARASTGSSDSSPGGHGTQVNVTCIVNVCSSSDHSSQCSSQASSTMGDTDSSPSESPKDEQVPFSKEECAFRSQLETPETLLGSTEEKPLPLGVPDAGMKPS

T2: CD27 on transiently transfected cells (UniProt P26842 20-260, limits assumed)
T2 construct: whole, on cells
T2 sequence (looked up): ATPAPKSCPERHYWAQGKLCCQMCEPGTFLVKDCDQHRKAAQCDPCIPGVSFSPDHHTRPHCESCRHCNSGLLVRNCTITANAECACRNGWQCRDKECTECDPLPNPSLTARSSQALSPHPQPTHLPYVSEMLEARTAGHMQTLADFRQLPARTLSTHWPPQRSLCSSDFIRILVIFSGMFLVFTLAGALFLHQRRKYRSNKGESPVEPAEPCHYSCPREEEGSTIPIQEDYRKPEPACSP

T3: DcR1 on transiently transfected cells (UniProt O14798 26-236, limits assumed)
T3 construct: whole, on cells
T3 sequence (looked up): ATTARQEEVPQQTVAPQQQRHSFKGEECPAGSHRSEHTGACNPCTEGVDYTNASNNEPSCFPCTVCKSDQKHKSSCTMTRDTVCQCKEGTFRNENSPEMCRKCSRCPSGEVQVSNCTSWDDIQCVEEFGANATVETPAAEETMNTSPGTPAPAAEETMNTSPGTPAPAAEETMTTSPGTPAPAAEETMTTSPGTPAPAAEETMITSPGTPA

T4: DcR2 on transiently transfected cells (UniProt Q9UBN6 56-386, limits assumed)
T4 construct: whole, on cells
T4 sequence (looked up): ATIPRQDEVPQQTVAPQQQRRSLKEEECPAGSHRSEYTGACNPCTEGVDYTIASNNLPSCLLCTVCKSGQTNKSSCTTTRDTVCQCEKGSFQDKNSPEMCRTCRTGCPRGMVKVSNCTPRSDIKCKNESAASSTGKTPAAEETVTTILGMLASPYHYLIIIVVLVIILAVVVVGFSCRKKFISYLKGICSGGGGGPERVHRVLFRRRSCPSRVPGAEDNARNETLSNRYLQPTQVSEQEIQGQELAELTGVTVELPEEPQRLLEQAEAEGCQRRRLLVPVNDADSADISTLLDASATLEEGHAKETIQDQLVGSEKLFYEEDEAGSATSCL

T5: DR4 on transiently transfected cells (UniProt O00220 24-468, limits assumed)
T5 construct: whole, on cells
T5 sequence (looked up): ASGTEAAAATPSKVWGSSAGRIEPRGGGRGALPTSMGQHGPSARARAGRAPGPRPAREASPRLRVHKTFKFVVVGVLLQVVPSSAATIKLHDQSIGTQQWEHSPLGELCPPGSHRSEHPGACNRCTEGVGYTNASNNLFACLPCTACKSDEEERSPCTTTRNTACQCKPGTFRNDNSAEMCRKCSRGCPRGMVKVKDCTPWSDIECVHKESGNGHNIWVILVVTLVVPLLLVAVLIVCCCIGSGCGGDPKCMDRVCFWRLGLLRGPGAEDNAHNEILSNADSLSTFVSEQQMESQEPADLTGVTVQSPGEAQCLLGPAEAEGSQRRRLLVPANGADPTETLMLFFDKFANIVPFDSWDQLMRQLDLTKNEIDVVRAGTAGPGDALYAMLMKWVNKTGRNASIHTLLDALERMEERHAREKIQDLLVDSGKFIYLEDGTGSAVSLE

B1: FLAG-tagged soluble TNF-gamma-beta (aa 72-251) (ligand)
chain: LKGQEFAPSHQQVYAPLRADGDKPRAHLTVVRQTPTQHFKNQFPALHWEHELGLAFTKNRMNYTNKFLLIPESGDYFIYSQVTFRGMTSECSEIRQAGRPNKPDSITVVITKVTDSYPEPTQLLMGTKSVCEVGSNWFQPIYLGAMFSLQEGDKLMVNVSDISLVDYTKEDKTFFGAFLL
notes: also called FLAG-TL1β; FLAG-TNF-gamma-beta; not shown: The N-terminal FLAG tag (pFLAG-CMV-1 vector) and any vector linker

What was measured:
[1] = test system: chorioallantoic membrane (CAM); assay: Chicken embryonic chorioallantoic membrane (CAM) angiogenesis assay; format: in vivo; conditions: 250 ng bacterially-produced TNF-gamma mixed with FGF-2 (100 ng) or VEGF (250 ng)
Procedure: The CAM assay was carried out essentially as described by Nguyen and colleagues (Microvasc. Res. 47:31-40 (1994)) and Iruela-Arispe and Dvorak (Thromb. Haemost. 78:672-677 (1997)). The method is based on the growth of new capillary vessels into a collagen gel pellet placed directly on the chorioallantoic membrane (CAM). Angiogenic factors such as […], FGF-2 (100 ng), VEGF (250 ng), or bFGF (10, 500, and 1000 ng) were embedded in collagen gel pellets and placed in contact with the CAM. Quantification of angiogenesis in the gels was carried out 24 hours after the placement of the gel pellets by using a Nikon fluorescence microscope. The images were transferred to a Power PC 100 AV, using a CCD Sony camera. Fluorescence intensity was evaluated with NH Image 1.61 software. Fluorescence intensity for the positive controls (which contained an angiogenic factor alone) was considered as the maximum angiogenic response, and set, arbitrarily, at 100. Due to the variability of the assay, inhibition greater than 20% was considered significant.
As an experimental determination of the effect of TNF-gamma on the FGF-2- or VEGF-induced angiogenesis, bacterially-produced TNF-gamma (250 ng) was mixed with either FGF-2 (100 ng) or VEGF (250 ng) and embedded in collagen gel pellets. The pellets were then placed in contact with the CAM as described above.

[2] = test system: Primary human aterial endothelial; assay: TNF-gamma activity on primary human arterial endothelial cells; format: cell-based; set-up: key: The numbers of “+” indicate the relative level of activities.; ++: The numbers of “+” indicate the relative level of activities.; +++: The numbers of “+” indicate the relative level of activities.; “−” indicates no detected activity at the concentration range tested
[3] = target: T1, TNFR2 on transiently transfected cells; assay: flow cytometry on transiently transfected cells
Procedure: (§1) One million cells, in 0.1 ml of FACS buffer (PBS, 0.1% BSA, 0.1% NaN₃), were incubated with 0.1-1 microgram of protein or antibody at RT for 15 min. The cells were washed with 3 ml of FACS buffer, reacted with biotinylated primary antibody, and stained with PE-conjugated secondary antibody at RT for 15 min. Cells were then washed again, resuspended in 0.5 microgram/ml of propidium iodide, and live cells were gated and analyzed on a FACScan using the CellQuest software (BD Biosciences).

[4] = target: T2, CD27 on transiently transfected cells; assay: flow cytometry on transiently transfected cells
Procedure: as §1

[5] = target: T6, LTβR on transiently transfected cells (UniProt P36941 31-435, limits assumed); assay: flow cytometry on transiently transfected cells
T6 construct: whole, on cells
T6 sequence (P36941 31-435 limits assumed): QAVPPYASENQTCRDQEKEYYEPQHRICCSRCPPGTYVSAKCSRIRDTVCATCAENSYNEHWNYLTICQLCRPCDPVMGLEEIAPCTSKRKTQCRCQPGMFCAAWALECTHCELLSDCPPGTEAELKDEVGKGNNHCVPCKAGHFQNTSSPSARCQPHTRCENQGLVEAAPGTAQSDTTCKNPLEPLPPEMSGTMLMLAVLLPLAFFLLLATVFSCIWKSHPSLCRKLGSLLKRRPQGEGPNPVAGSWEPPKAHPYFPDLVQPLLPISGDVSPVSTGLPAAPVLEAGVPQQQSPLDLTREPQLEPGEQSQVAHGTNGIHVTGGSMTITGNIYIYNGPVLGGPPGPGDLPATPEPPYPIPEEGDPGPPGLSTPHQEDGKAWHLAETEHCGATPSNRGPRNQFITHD
Procedure: as §1

[6] = target: T3, DcR1 on transiently transfected cells; assay: flow cytometry on transiently transfected cells
Procedure: as §1

[7] = target: T4, DcR2 on transiently transfected cells; assay: flow cytometry on transiently transfected cells
Procedure: as §1

[8] = target: T5, DR4 on transiently transfected cells; assay: flow cytometry on transiently transfected cells
Procedure: as §1

Molecule | new capillary growth into collagen gels (FGF-2- or VEGF-induced angiogenesis) [1] | Differentiation [2] | Proliferation [2] | binding result [3] | binding result [4] | binding result [5] | binding result [6] | binding result [7] | binding result [8]
TNF-gamma: new member of the tumor necrosis factor family; the term refers to TNF-gamma-alpha and/or TNF-gamma-beta | markedly inhibited new capillary growth into collagen gels | −? | ++ | – | – | – | – | – | –
B1 | – | – | – | no binding | no binding | no binding | no binding | no binding | no binding
